For assay [1], the target named is VWF in human whole blood of healthy volunteers (human) (UniProt P04275). As to the kind of experiment: cell-based or functional assay.
The target in assay [2] is reference Nanobody (in accordance with WO 04/062551). Put plainly: competition ELISA: soluble ristocetin-preincubated wt-VWF at equal molar concentration against 62.5 nM biotinylated reference Nanobody on immobilized VWF. (In general: ELISA stands for enzyme-linked immunosorbent assay.)

Regarding “GpIbα on platelets (from UniProt P07359 17-652) (receptor)”, the platelet coverage in assay [1] was found to be 67.8%.
The substance “wt-VWF preincubated with 1 mg/ml ristocetin (ristocetin-activated VWF) (from UniProt P04275 764-2813)” had a percent reduction of binding in assay [2] of 90%.

The values are drawn from patent US20080096223A1.
